Common to all, as to test: cell_activity
For data set [1], the system named is ATP6 (lettuce) mt-DdCBE right (synthetic). The settings on record: pair, lettuce protoplasts; first printed repeat NG vs G in site.
Data set [2] deals with 16S rDNA cp-DdCBE left (synthetic). To be noted: pair, mRNA in lettuce protoplasts.
In data set [3] the target is ND4 TALE-TadA* (synthetic) (UniProt P14727). The settings on record: A-to-G editing.
Data set [4] addresses mDdCBE ND4 TALE-E1347A DddAtox (synthetic) (UniProt P14727). To be noted: monomeric full-length DddAtox.
Data set [5] has as its target mDdCBE ND4 TALE-GSVG DddAtox (synthetic) (UniProt P14727). To be noted: monomeric full-length DddAtox.
The test system of data set [6] is ATP6 mt-DdCBE left (synthetic).
The subject of data set [7] is 16S rDNA cp-DdCBE right (synthetic). The settings on record: pair, mRNA in lettuce protoplasts.
Data set [8] concerns mouse ND5 silent DdCBE right (synthetic). The settings on record: pair, NIH3T3.

A value given as a limit tells only on which side of the number the result lay.

As to “GAAAAAATGAAGCCCA (double strand) [ATP6 lettuce right TALE site]”, the activity in data set [1] came to 23%.

As for “GGGGAGTACGTTCGCAAG (double strand) [16S rDNA left TALE site]”, in data set [2], the activity is below 25%.

For ND4 TALE target, the activity was below 0.6% in data set [3], below 7.2% in data set [4] and below 31% in data set [5].

Consider “TATTGGCATTACTATAG (double strand) [ATP6 left TALE site]”, for which, in data set [6], the activity amounted to 23%.

Consider “TGTGCGGGCCCCCGTCAA (double strand) [16S rDNA right TALE site]”, for which the activity in data set [7] is below 25%.

As for “TTAAAATAAAGTTATTATT (double strand) [ND5 silent right TALE site]”, the activity in data set [8] was below 19%.

These data come from patent US20240294945.
